# Measured values from patent US20260209345A1 (IOMX THERAPEUTICS, published 2026).
# Key:
# recombinant LILRB2 ECD [1] = molecular target: T1, recombinant LILRB2 ECD (human, UniProt Q8N423 22-460); assay: competition ELISA (Example 3): biotinylated LILRB2 ECD with avidin-HRP pre-incubated with antibody 0.1-100 nM, residual binding to coated B2M-HLA-G-mouse IgG2a-Fc; blocked ligand HLA-G
# T1 construct: also called biotinylated LILRB2 ECD
# [2] = molecular target: LILRB2 on primary monocytes (human) (UniProt Q8N423); assay: flow cytometry, primary monocytes
# Chain of LILRB2 on primary monocytes (human) (Q8N423 22-597 limits assumed): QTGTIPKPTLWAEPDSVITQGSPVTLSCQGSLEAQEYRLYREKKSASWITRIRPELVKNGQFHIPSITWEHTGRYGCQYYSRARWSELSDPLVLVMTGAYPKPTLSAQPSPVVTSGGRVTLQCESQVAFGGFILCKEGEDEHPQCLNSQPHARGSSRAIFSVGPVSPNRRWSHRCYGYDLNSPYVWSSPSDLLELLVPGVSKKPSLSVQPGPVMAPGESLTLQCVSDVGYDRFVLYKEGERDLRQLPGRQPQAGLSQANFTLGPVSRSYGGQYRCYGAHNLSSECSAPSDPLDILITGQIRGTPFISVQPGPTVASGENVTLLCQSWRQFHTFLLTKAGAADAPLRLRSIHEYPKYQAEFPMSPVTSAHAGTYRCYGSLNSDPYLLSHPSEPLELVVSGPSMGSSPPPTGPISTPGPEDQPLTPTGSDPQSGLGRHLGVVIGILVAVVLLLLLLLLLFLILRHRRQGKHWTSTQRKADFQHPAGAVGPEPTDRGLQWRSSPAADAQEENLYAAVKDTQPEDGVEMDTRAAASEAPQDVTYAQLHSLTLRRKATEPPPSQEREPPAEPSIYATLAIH
# [3] = molecular target: LILRB2 on transiently transfected Expi293 cells (human) (UniProt Q8N423); assay: flow cytometry, transfected Expi293 cells
# Chain of LILRB2 on transiently transfected Expi293 cells (human) (Q8N423 22-597 limits assumed): as above
# recombinant LILRB2 ECD [4] = molecular target: T1, recombinant LILRB2 ECD; assay: ELISA, LILRB2 ECD binding to HLA-G-Fc
# Summary of the method: (§1)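 Plates coated with 2 ug/mL B2M-HLA-G–mouse IgG2a-Fc. Antibodies (final 100 nM to 0.1 nM) premixed 1 h at room temperature with LILRB ECD/avidin-HRP, then applied to the HLA-G plate for 15 min. Residual LILRB binding read by TMB development.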
# recombinant LILRB2 ECD [5] = molecular target: T1, recombinant LILRB2 ECD; assay: BLI, IgG on AHC sensor, ECD in solution
# Description: (§2) Briefly, IgGs were captured on anti-human capture (AHC) biosensors (Sartorius). […] Subsequently, the sensors were dipped into 1× Kinetics Buffer to measure the dissociation over 420 s. All sensorgrams were double referenced against 1× Kinetics Buffer and unloaded […] sensors to subtract sensor drifts and potential reference binding of the analytes. The affinities were determined by applying a 1:1 binding model.
# [6] = molecular target: LILRB1 on transiently transfected Expi293 cells (human, UniProt Q8NHL6 24-650); assay: flow cytometry, transfected Expi293 cells
# Chain of LILRB1 on transiently transfected Expi293 cells (Q8NHL6 24-650 limits assumed): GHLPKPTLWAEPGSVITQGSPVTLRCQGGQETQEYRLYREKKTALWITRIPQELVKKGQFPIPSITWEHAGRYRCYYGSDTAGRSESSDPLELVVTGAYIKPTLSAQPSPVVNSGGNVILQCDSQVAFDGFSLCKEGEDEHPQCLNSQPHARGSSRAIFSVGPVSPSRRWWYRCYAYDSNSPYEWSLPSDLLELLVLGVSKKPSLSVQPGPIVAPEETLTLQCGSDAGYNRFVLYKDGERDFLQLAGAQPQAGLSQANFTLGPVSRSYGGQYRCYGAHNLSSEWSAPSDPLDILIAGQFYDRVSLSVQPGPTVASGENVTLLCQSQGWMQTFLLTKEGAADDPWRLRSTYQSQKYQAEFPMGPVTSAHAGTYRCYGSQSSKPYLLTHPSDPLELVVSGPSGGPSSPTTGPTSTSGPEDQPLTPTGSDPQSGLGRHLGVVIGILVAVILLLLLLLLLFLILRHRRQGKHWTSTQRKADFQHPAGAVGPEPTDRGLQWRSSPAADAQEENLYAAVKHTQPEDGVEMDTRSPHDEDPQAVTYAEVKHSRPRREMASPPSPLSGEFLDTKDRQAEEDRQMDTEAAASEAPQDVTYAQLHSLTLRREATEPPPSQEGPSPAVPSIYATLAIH
# Description: (§3) Non-transfected Expi293 cells were used as negative control. Cells were harvested and labeled with CellTraceViolet for multiplexing. […] Subsequently, cells were washed and stained with a secondary anti-human IgG labeled with AF647 for 30 minutes at 4° C. in the dark. Cells were washed again and mixed with 7-AAD viability dye before flow acquisition to test for surface binding.
# [7] = molecular target: LILRB2 on transiently transfected Expi293 cells (human, UniProt Q8N423 22-597); assay: flow cytometry, transfected Expi293 cells
# Chain of LILRB2 on transiently transfected Expi293 cells (Q8N423 22-597 limits assumed): as the sequence (Q8N423 22-597 limits assumed) above
# Description: as §3
# [8] = molecular target: T2, LILRA2 on transiently transfected Expi293 cells (human, UniProt Q8N149 24-483); assay: flow cytometry, transfected Expi293 cells
# T2 construct: whole, on cells
# T2 sequence (Q8N149 24-483): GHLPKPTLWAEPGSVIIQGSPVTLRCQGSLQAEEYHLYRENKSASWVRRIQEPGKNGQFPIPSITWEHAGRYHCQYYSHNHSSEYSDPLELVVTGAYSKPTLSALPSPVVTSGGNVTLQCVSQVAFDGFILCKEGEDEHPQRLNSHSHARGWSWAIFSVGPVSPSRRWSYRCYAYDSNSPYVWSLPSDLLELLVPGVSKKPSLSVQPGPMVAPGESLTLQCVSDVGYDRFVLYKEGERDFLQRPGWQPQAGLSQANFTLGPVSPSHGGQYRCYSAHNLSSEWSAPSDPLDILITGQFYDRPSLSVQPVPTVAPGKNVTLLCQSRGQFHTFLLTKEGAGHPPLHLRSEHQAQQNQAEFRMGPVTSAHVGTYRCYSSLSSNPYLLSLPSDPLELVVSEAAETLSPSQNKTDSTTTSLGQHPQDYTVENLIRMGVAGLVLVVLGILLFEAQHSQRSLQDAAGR
# Description: as §3
# recombinant LILRB1 ECD [9] = molecular target: T3, recombinant LILRB1 ECD (human, UniProt Q8NHL6 24-461); assay: ELISA, LILRB1 ECD binding to HLA-G-Fc
# T3 construct: also called biotinylated LILRB1 ECD
# T3 sequence (Q8NHL6 24-461 limits assumed): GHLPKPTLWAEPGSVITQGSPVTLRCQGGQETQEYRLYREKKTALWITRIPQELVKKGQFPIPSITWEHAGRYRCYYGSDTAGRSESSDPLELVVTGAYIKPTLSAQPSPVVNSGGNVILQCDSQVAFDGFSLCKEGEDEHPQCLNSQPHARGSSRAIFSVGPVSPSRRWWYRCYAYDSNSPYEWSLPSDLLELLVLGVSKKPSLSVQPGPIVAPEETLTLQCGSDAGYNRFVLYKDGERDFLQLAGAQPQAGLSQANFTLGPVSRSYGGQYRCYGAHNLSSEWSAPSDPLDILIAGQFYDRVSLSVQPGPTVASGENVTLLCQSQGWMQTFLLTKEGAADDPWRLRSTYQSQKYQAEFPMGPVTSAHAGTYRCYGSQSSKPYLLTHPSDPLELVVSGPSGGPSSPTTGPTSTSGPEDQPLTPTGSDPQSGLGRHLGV
# Summary of the method: as §1
# recombinant LILRB1 ECD [10] = molecular target: T3, recombinant LILRB1 ECD; assay: BLI, IgG on AHC sensor, ECD in solution
# Description: as §2
# recombinant LILRA3 [11] = molecular target: T4, recombinant LILRA3 (human, UniProt Q8N6C8 24-439); assay: BLI, IgG on AHC sensor, ECD in solution; biochemical assay, monovalent KD on recombinant protein (Table 2): weak off-target binding, 575 nM
# T4 construct: whole entry named; also called LILRA3 ECD; LILA3
# T4 sequence (Q8N6C8 24-439 limits assumed): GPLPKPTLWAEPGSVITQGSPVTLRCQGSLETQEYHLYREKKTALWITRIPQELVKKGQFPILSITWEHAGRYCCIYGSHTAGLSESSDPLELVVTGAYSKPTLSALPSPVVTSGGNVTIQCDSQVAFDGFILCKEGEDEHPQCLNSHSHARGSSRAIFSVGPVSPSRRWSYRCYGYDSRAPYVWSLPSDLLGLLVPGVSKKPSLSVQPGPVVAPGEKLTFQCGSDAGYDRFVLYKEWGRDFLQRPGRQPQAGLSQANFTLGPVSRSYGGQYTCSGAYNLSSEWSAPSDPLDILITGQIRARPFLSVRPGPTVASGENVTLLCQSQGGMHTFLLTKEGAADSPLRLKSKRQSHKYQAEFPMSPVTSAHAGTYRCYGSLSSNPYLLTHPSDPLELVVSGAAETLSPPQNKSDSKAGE
# Description: as §2
# recombinant LILRA1 ECD [12] = molecular target: T5, recombinant LILRA1 ECD (human, UniProt O75019 17-461); assay: BLI, IgG on AHC sensor, ECD in solution; biochemical assay, monovalent KD on recombinant protein (Table 2): weak off-target binding, 962 nM
# T5 construct: whole canonical entry named; also called LILA1
# T5 sequence (O75019 17-461 limits assumed): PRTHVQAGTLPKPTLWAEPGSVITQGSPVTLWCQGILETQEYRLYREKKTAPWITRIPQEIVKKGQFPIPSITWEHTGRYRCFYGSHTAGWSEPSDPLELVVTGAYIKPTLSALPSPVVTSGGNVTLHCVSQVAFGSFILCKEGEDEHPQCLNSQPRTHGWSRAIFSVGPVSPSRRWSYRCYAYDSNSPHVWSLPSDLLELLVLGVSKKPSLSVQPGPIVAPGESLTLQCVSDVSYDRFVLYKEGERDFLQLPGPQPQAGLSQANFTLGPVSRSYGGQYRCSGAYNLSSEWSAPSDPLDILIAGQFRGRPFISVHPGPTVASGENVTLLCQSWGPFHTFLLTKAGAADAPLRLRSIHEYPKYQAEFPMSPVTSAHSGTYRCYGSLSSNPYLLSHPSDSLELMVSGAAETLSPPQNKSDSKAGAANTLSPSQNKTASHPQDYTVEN
# Description: as §2
# [13] = molecular target: LILRB2 on Jurkat reporter cells (ILT4/HLA-G Blockade Bioassay Kit, Promega) (human) (UniProt Q8N423); assay: cell-based or functional assay
# Chain of LILRB2 on Jurkat reporter cells (ILT4/HLA-G Blockade Bioassay Kit, Promega) (human) (Q8N423 22-597 limits assumed): as the sequence (Q8N423 22-597 limits assumed) above
# [14] = molecular target: LILRA1 on transiently transfected Expi293 cells (human) (UniProt O75019); assay: flow cytometry, transfected Expi293 cells
# Chain of LILRA1 on transiently transfected Expi293 cells (human) (O75019 17-489 limits assumed): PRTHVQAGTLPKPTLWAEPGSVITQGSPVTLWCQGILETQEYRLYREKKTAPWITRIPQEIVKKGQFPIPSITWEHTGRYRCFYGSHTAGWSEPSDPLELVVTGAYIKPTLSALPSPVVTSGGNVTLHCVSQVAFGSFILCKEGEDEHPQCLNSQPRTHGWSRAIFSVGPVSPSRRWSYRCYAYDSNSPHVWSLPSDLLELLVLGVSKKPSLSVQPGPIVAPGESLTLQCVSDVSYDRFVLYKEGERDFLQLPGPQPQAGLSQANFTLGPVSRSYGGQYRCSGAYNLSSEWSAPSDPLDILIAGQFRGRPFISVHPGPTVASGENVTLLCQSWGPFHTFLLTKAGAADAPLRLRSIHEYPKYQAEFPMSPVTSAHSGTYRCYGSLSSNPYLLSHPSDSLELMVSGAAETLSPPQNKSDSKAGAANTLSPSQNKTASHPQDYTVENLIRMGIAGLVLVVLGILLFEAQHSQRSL
# [15] = molecular target: LILRA3 on transiently transfected Expi293 cells (human) (UniProt Q8N6C8); assay: flow cytometry, transfected Expi293 cells
# Chain of LILRA3 on transiently transfected Expi293 cells (human) (Q8N6C8 24-439 limits assumed): as the sequence (Q8N6C8 24-439 limits assumed) above
# [16] = molecular target: LILRB1 on transiently transfected Expi293 cells (human) (UniProt Q8NHL6); assay: flow cytometry, transfected Expi293 cells
# Chain of LILRB1 on transiently transfected Expi293 cells (human) (Q8NHL6 24-650 limits assumed): as the sequence (Q8NHL6 24-650 limits assumed) above
# recombinant LILRA1 ECD [17] = molecular target: T5, recombinant LILRA1 ECD; assay: BLI, IgG on AHC sensor, ECD in solution
# Description: as §2
# recombinant LILRA3 [18] = molecular target: T4, recombinant LILRA3; assay: BLI, IgG on AHC sensor, ECD in solution
# Description: as §2
# T1 sequence (Q8N423 22-460 limits assumed): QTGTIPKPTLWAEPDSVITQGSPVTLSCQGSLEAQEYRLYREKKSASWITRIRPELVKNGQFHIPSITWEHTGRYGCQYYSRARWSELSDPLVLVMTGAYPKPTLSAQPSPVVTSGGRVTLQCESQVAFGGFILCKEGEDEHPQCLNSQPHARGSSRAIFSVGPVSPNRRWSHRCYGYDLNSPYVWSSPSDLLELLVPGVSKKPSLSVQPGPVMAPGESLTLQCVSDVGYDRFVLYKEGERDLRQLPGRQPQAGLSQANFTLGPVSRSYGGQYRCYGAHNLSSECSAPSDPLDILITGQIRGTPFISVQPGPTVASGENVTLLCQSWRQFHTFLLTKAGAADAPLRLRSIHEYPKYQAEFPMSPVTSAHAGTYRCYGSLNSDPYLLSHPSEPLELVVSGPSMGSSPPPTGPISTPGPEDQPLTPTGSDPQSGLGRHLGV
Molecule,IC50 (recombinant LILRB2 ECD [4]),Kd (recombinant LILRB2 ECD [5]),IC50 (recombinant LILRB1 ECD [9]),Kd (recombinant LILRB1 ECD [10]),Kd (recombinant LILRA1 ECD [17]),Kd (recombinant LILRA3 [18]),other results
"Ref065 [IO-108, LILRB2 specific] (antibody)",,,,,,,IC50 (read off the curve) (recombinant LILRB2 ECD [1]): 3 nM
"A-045 (antibody, V domains shown, tested as IgG; HC of A-010 and LC of A-036) VH: QVQLVQSGAEVKKPGSSVKVSCKASGGTFQSQAFAWVRQAPGQGLEWMGSIIPGFSTANYAQKFQGRVTITADESTSTAYMELSSLRSEDTAVYYCAKDLGTYSSGWPYYYGMDVWGQGTTVTVSS VL: SYELTQPPSVSVSPGQTASITCSGDKLGDKYASWYQQKPGQSPVLVIYQDSKRPSGIPERFSGSNSGNTATLTISGTQAEDEADYYCQLTHLTIYVFGGGTKLTVL",3.5 nM,2.8 nM,2.1 nM,2.3 nM,,,EC50 [6]: 1.5 nM; EC50 [7]: 1.3 nM; binding result [8]: no binding; Kd (recombinant LILRA3 [11]): 575 nM; Kd (recombinant LILRA1 ECD [12]): 962 nM
"A-041 (antibody, V domains shown, tested as IgG) VH: QVQLVQSGAEVKKPGSSVKVSCKASGGTFSSYAISWVRQAPGQGLEWMGGIIPIFGTANYAQKFQGRVTITADESTSTAYMELSSLRSEDTAVYYCAKGPPVGSSSWYTDWYFDLWGRGTLVTVSS VL: SYELTQPPSVSVSPGQTASITCSGDKLGDKYASWYQQKPGQSPVLVIYQDSKRPSGIPERFSGSNSGNTATLTISGTQAEDEADYYCSSYGSGLTVVFGGGTKLTVL",4.4 nM,5.8 nM,1.5 nM,17.5 nM,242 nM,465 nM,
"A-038 (antibody, V domains shown, tested as IgG) VH: QVQLVQSGAEVKKPGSSVKVSCKASGGTFSSYAISWVRQAPGQGLEWMGGIIPIFGTANYAQKFQGRVTITADESTSTAYMELSSLRSEDTAVYYCAKGPPVGSSSWYTDWYFDLWGRGTLVTVSS VL: SYELTQPPSVSVSPGQTASITCSGDKLGDKYASWYQQKPGQSPVLVIYQDSKRPSGIPERFSGSNSGNTATLTISGTQAEDEADYYCSLYGAGHTVVFGGGTKLTVL",3.4 nM,4.8 nM,2.2 nM,6.7 nM,209 nM,448 nM,
"A-048 (antibody, V domains shown, tested as IgG) VH: QVQLVQSGAEVKKPGSSVKVSCKASGYTFSKSAMSWVRQAPGQGLEWMGGIVPKFHTSVYAQKFQGRVTITADESTSTAYMELSSLRSEDTAVYYCAKGPPVGSSSWYTDWYFDLWGRGTLVTVSS VL: SYELTQPPSVSVSPGQTASITCSGDKLGDKYASWYQQKPGQSPVLVIYQDSKRPSGIPERFSGSNSGNTATLTISGTQAEDEADYYCALYGGGHTVVFGGGTKLTVL",4.1 nM,5.6 nM,2 nM,8.7 nM,1070 nM,1970 nM,

# Continued, in another order:
IC50 (recombinant LILRB2 ECD [4]),Kd (recombinant LILRB2 ECD [5]),IC50 (recombinant LILRB1 ECD [9]),Kd (recombinant LILRB1 ECD [10]),Kd (recombinant LILRA1 ECD [17]),Kd (recombinant LILRA3 [18]),Molecule,other results
3.1 nM,3.4 nM,,,,,"Ref047 [MK-4830, LILRB2 specific] (antibody, from another filing, V domains shown) VH: EVQLQQWGAGLLKPSETLSLTCAVYGGSFSGYYWSWIRQPPGKGLEWIGEINHAGSTNYNPSLKSRVTISVDTSKNQFSLKLSSVTAADTAVYYCARLPTRWVTTRYFDLWGRGTLVTVSS VL: ESVLTQPPSVSGAPGQRVTISCTGSSSNIGAGYDVHWYQQLPGTAPKLLIYGDSNRPSGVPDRFSVSKSGASASLAITGLQAEDEADYYCQSFDNSLSAYVFGGGTQLTVL",EC50 [2]: 1 nM; EC50 [3]: 1.7 nM
4.7 nM,0.4 nM,5.7 nM,0.5 nM,0.6 nM,1.4 nM,"Ref062 [NGM707, cross-specific] (antibody, from another filing, V domains shown) VH: QVQLVQSGAEVKKPGASVKVSCKASGYTFTDYYINWVRQAPGQGLEWMGNVNPNDGGTTYNQKFKGRVTMTTDTSTSTAYMELRSLRSDDTAVYYCARREIYFYGTIYYYAMDYWGQGTLVTVSS VL: DIQLTQSPSFLSASVGDRVTITCRASESVDYYGNSFMYWYQQKPGKAPKLLIYFASNLESGVPSRFSGSGSGTEFTLTISSLQPEDFATYYCQQNNEDPWTFGGGTKVEIKR",luminescence of LILRB2-expressing Jurkat reporter cells with HLA-G expressing APC/CHO-K1 cells (ILT4/HLA-G Blockade Bioassay) [13]: 0.9 nM; EC50 [14]: 3.7 nM; EC50 [15]: 7.8 nM; EC50 [16]: 9.1 nM; EC50 [3]: 17.3 nM
